The results in this text go back to patent publication US9988424 (DUKE UNIVERSITY, dated 2018).

Substitutions are numbered along the chain they refer to.

A word on the koff: it is a measure of how fast the partners let go of each other. Higher therefore signals fast dissociation. By kon is commonly meant the rate constant with which the complex forms. A lower kon goes with slow association.

The target of one assay is AE.A244 gp120 delta 11 (HIV-1).
Assay [1] deals with T1, G.con gp140CF.
T1 construct: also called G.con.env03 gp140CF
Kind of assay: ELISA, OD405. On the technique in general: An ELISA detects its analyte on a solid surface through an enzyme-linked reagent.

A further assay concerns the target B.63521 gp140C. Kind of assay: ELISA, OD405.
In another assay the target is T2, D.9009SA V1V2 Tags.
T2 Env construct: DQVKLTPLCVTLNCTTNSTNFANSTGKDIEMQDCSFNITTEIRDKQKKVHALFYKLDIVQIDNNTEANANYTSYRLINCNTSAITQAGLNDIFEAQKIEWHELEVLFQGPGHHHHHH
Put plainly: ELISA, OD405.

The target in a further assay is B. 681-7 gp140C. Kind of assay: ELISA, OD405.
The next assay concerns the target B.040 gp140C. Put plainly: ELISA, OD405.
Assay [2] deals with T3, B.con gp140CF.
T3 construct: also called B.con.env03 gp140CF
Put plainly: ELISA, OD405.

The target of a further assay is B.Case A2 V1/V2 tags. Kind of assay: ELISA, OD405 at 10 ug/ml.
For another assay, the target named is C.1086 V1V2 Tags (HIV-1). Kind of assay: ELISA, OD405 at 10 ug/ml.
In a further assay the target is T4, C.1086 gp140.
T4 construct: also called C.1086gp140C
Put plainly: ELISA, OD405 at 10 ug/ml.

The target of a further assay is D.9009SA V1/V2 tags. Put plainly: ELISA, OD405 at 10 ug/ml.
The next assay addresses C.CAP206 gp140CF.12 (HIV-1). Kind of assay: ELISA, OD405 at 10 ug/ml.
In the next assay the target is B.63521_V1/V2 tags. Put plainly: ELISA, OD405 at 10 ug/ml.
The target in another assay is Con 6 gp120. Put plainly: ELISA, OD405 at 10 ug/ml.
Another assay deals with T5, B.HXB/BAL gp140CFI (HIV-1, UniProt P04578 33-680).
T5 construct: also called B.HxB/Ba gp140 CFI
Kind of assay: ELISA, OD405 at 10 ug/ml.

In a further assay the target is T6, SIV CPZ US-1 gp140CF (SIVcpz).
T6 construct: also called US-1 SIVCPZ gp140CF
T6 chain: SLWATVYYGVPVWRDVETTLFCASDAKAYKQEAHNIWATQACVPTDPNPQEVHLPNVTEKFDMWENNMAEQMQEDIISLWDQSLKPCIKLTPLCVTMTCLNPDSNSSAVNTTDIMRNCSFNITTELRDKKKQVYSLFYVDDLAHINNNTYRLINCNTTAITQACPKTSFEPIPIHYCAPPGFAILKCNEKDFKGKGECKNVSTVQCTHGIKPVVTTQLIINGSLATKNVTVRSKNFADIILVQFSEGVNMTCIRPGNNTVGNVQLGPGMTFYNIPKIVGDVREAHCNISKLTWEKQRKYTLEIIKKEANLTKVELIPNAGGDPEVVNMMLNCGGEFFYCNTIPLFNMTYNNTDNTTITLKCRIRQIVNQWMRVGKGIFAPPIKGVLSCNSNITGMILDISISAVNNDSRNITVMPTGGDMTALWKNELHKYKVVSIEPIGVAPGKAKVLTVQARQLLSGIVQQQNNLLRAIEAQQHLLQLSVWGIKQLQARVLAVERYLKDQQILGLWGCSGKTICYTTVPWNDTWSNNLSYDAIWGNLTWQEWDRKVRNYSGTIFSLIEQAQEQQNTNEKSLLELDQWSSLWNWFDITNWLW
Put plainly: ELISA, OD405 at 10 ug/ml.

For another assay, the target named is T7, B.62357 gp140C.
T7 construct: also called B.62357 140C
Put plainly: ELISA, OD405 at 10 ug/ml.

In a further assay the target is C.1086 gp120 (HIV-1). Kind of assay: ELISA, OD405 at 10 ug/ml.
A further assay has as its target T8, AE.97CNG2XF gp140CF (HIV-1).
T8 construct: also called E.97CNGX2F gp140CF
Put plainly: ELISA, OD405 at 10 ug/ml.

The target in another assay is B.9021 gp140C (HIV-1). Put plainly: ELISA, OD405 at 10 ug/ml.
The target of another assay is T9, gp70 C.1086 V1/V2 (HIV-1 V1V2 on murine leukemia virus gp70).
T9 construct: also called C.gp70 1086C V1V2; C.1086gp70V1V2
T9 chain: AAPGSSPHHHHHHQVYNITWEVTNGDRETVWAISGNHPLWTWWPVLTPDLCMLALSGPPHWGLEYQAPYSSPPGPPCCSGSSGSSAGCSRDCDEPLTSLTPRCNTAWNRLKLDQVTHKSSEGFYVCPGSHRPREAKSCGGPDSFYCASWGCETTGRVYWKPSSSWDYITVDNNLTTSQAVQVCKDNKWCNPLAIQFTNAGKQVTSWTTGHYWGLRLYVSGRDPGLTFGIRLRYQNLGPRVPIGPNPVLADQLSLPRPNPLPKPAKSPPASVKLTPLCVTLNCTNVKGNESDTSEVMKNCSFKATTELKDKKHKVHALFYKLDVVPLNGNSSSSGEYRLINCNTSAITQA
Put plainly: ELISA, OD405 at 10 ug/ml.

The target in assay [3] is G.con gp140CF. Put plainly: ELISA, OD405 at 10 ug/ml.
The target in the next assay is T10, A.9004SS V1/V2 tags.
T10 V1V2 tags construct: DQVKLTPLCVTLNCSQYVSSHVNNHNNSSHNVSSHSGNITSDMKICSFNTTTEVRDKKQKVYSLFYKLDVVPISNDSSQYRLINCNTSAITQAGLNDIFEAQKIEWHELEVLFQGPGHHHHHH
Kind of assay: ELISA, OD405 at 10 ug/ml.

Assay [4] concerns the target B.con gp140CF. Kind of assay: ELISA, OD405 at 10 ug/ml.

B1: CH59 (antibody, V domains shown)
VH: EVQLVESGGGLVQPGRSLRLSCAASGFTFDDGAMHWVRQAPGKGLEWVSGISWNSNIIAYADSVKGRFTISRDNAKNSLYLEMNSLRVEDTALYYCAKDSPRGELPLNYWGQGTLVTVSS
VL: SYELTQPPSVSVSPGQTARITCSGDALPKNYAYWYQQKSGQAPVLVIYEDSKRPSGIPERFSGSSSGTMATLTISGAQVEDEADYYCYSTDSSGNHRVFGGGTKLTVL
notes: also called mAb CH59
Regarding B1, in the assay with AE.A244 gp120 delta 11, the koff is 0.00013 s⁻¹ and the kon worked out at 58300 M⁻¹ s⁻¹.

B2: CH59 reverted unmutated ancestor antibody (antibody, V domains shown)
VH: B1 VH with G32Y, N56G, I57S, A59G, E82Q, V88A, L107F, N108D
VL: B1 VL with N30K
notes: also called CH59 RUA; CH59_RUA
As for B2, the binding result in the assay with G.con gp140CF [1], with B.63521 gp140C, with D.9009SA V1V2 Tags, with B. 681-7 gp140C, with B.040 gp140C and with B.con gp140CF [2] was “no binding (tested: 10 ug/ml)” each time.

B3: 697D reverted unmutated ancestor antibody (antibody, V domains shown)
VH: QVQLVQSGAEVKKPGSSVKVSCKASGGTFSSYTISWVRQAPGQGLEWMGRIIPILGIANYAQKFQGRVTITADKSTSTAYMELSSLRSEDTAVYYCATSGVGLHFGYFDYWGQGTLVTVSS
VL: QSVLTQPPSVSGAPGQRVTISCTGSSSNIGAGYDVHWYQQLPGTAPKLLIYGNSNRPSGVPDRFSGSKSGTSASLAITGLQAEDEADYYCQSYDSSLSGYVFGTGTKVTVL
notes: also called 697D RUA
In the case of B3, the binding result in the assay with B.Case A2 V1/V2 tags, with C.1086 V1V2 Tags, with C.1086 gp140, in the assay with D.9009SA V1/V2 tags, with C.CAP206 gp140CF.12 and in the assay with B.63521_V1/V2 tags was “no binding (tested: 10 ug/ml)” throughout. For the same molecule, the binding result in the assay with Con 6 gp120, in the assay with B.HXB/BAL gp140CFI, with SIV CPZ US-1 gp140CF, in the assay with B.62357 gp140C, in the assay with C.1086 gp120 and with AE.97CNG2XF gp140CF was “no binding (tested: 10 ug/ml)” throughout. Also, the binding result with B.9021 gp140C, in the assay with gp70 C.1086 V1/V2, in the assay with G.con gp140CF [3], with A.9004SS V1/V2 tags and with B.con gp140CF [4] was “no binding (tested: 10 ug/ml)” throughout.
